Data as given in patent US10000542 (Novo Nordisk, dated 2018).
Numbered stars: 1 amine (or outer) side, 2 acyl side, 3 side chain; on linkers, the order of the positions; unused ones are H or OH. Square brackets hold non-standard residues; d marks the D form. Side chains are listed from the residue outwards. Ends that are not written are not given here. * marks the point of attachment. Dodecanoyl(12-OPh(4-COOH)) = O=C(O)c1ccc(OCCCCCCCCCCCC(=O)*)cc1; Undecanoyl(11-OPh(4-COOH)) = O=C(O)c1ccc(OCCCCCCCCCCC(=O)*)cc1; γGlu = O=C(O)[C@H](CCC(=O)[*:2])N[*:1]; εLys = N[C@@H](CCCCN[*:1])C(=O)[*:2]; AEEA = NCCOCCOCC(=O)O; Aib = CC(C)(N)C(=O)O

B1: N^ε26-[(2S)-6-[[(2S)-6-[[(4S)-4-carboxy-4-[11-(4-carboxyphenoxy)undecanoylamino]butanoyl]amino]-2-(dimethylamino)hexanoyl]amino]-2-(dimethylamino)hexanoyl], … (peptide)
peptide: XXEGTFTSDVSSYLEGQAAKEFIAWLVRGRK
modifications: not fully specified; Imp (imidazopropionyl, des-amino histidine) at 7; Aib at 8; Lys 26 and Lys 37 each acylated at the epsilon-amino group with the side chain given in the name (numbering of GLP-1(7-37))
B2: N^ε26-[(2S)-2-amino-6-[[2-[2-[2-[[2-[2-[2-[[(4S)-4-carboxy-4-[11-(4-carboxyphenoxy)undecanoylamino]butanoyl]amino]ethoxy]ethoxy]acetyl]amino]ethoxy]ethoxy]acety … (peptide)
peptide: H[Aib]EGTFTSDVSSYLEEQAAK([εLys-AEEA-AEEA-γGlu-Undecanoyl(11-OPh(4-COOH))])EFIAWLVRGRK([εLys-AEEA-AEEA-γGlu-Undecanoyl(11-OPh(4-COOH))])
B3: N^ε26-[(2S)-2-amino-6-[[2-[2-[2-[[2-[2-[2-[[(4S)-4-carboxy-4-[12-(4-carboxyphenoxy)dodecanoylamino]butanoyl]amino]ethoxy]ethoxy]acetyl]amino]ethoxy]ethoxy]acety … (peptide)
peptide: H[Aib]EGTFTSDVSSYLEEQAAK([εLys-AEEA-AEEA-γGlu-Dodecanoyl(12-OPh(4-COOH))])EFIAWLVRGRK([εLys-AEEA-AEEA-γGlu-Dodecanoyl(12-OPh(4-COOH))])
B4: N^ε26-[(2S)-2-amino-6-[[(2S)-2-amino-6-[[(4S)-4-carboxy-4-(13-carboxytridecanoylamino)butanoyl]amino]hexanoyl]amino]hexanoyl], … (peptide)
peptide: HXEGTFTSDVSSYLEGQAAKEFIAWLVHGRK
modifications: Aib at 8; Lys 26 and Lys 37 each acylated at the epsilon-amino group with the side chain given in the name (numbering of GLP-1(7-37), His = 7)
B5: N^ε26-[(2S)-2-amino-6-[[(2S)-2-amino-6-[[(4S)-4-carboxy-4-[10-(4-carboxyphenoxy)decanoylamino]butanoyl]amino]hexanoyl]amino]hexanoyl], … (peptide)
peptide: HXEGTFTSDVSSYLEGQAAKEFIAHLVQGRK
modifications: Aib at 8; Lys 26 and Lys 37 each acylated at the epsilon-amino group with the side chain given in the name (numbering of GLP-1(7-37), His = 7)
B6: N^ε26-[(2S)-2-amino-6-[[(2S)-2-amino-6-[[(4S)-4-carboxy-4-[11-(4-carboxyphenoxy)undecanoylamino]butanoyl]amino]hexanoyl]amino]hexanoyl], … (peptide)
peptide: HXEGTFTSDVSSYLEGQAAKEFIAHLVQGRK
modifications: Aib at 8; Lys 26 and Lys 37 each acylated at the epsilon-amino group with the side chain given in the name (numbering of GLP-1(7-37), His = 7)
B7: N^ε26-[(2S)-2-amino-6-[[(2S)-2-amino-6-[[(4S)-4-carboxy-4-[12-(4-carboxyphenoxy)dodecanoylamino]butanoyl]amino]hexanoyl]amino]hexanoyl], … (peptide)
peptide: HXEGTFTSDVSSYLEGQAAKEFIAWLVQGRK
modifications: Aib at 8; Lys 26 and Lys 37 each acylated at the epsilon-amino group with the side chain given in the name (numbering of GLP-1(7-37), His = 7)
B8: N^ε26-[(2S)-2-amino-6-[[(4S)-4-carboxy-4-[[(4S)-4-carboxy-4-[11-(4-carboxyphenoxy)undecanoylamino]butanoyl]amino]butanoyl]amino]hexanoyl], … (peptide)
peptide: H[Aib]EGTFTSDVSSYLEEQAAK([εLys-γGlu-γGlu-Undecanoyl(11-OPh(4-COOH))])EFIEWLVRGRK([εLys-γGlu-γGlu-Undecanoyl(11-OPh(4-COOH))])
B9: Comparative compound (WO2011/080103) Example 4 (peptide)
peptide: HXEGTFTSDVSSYLEGQAAKEFIAWLVRGRK
modifications: Aib at 8; 26K and 37K acylated: protracting moiety C14 diacid, linker gGlu-2xOEG (numbering of GLP-1(7-37), His = 7)
notes: X stands for Aib
B10: N^ε26-[(2S)-2-amino-6-[[(2S)-2-[[2-[[(2S)-2-[[(4S)-4-carboxy-4-[12-(4-carboxyphenoxy)dodecanoylamino]butanoyl]amino]-3-hydroxypropanoyl]amino]acetyl]amino]-3-hy … (peptide)
peptide: XXEGTFTSDVSSYLEGQAAKEFIAWLVRGRK
modifications: Imp (imidazopropionyl, des-amino histidine) at 7; Aib at 8; Lys 26 and Lys 37 each acylated at the epsilon-amino group with the side chain given in the name (numbering of GLP-1(7-37))
B11: N^ε26-[(2S)-2-amino-6-[[(4S)-4-carboxy-4-[[(4S)-4-carboxy-4-[11-(4-carboxyphenoxy)undecanoylamino]butanoyl]amino]butanoyl]amino]hexanoyl], … (peptide)
peptide: H[Aib]EGTFTSDVSSYLEEQAAK([εLys-γGlu-γGlu-Undecanoyl(11-OPh(4-COOH))])EFIEWLVRGRK([εLys-γGlu-γGlu-Undecanoyl(11-OPh(4-COOH))])E
notes: X stands for Aib

Tests used:
human GLP-1 receptor [1] = molecular target: T1, human GLP-1 receptor (human, UniProt P43220 24-463); assay: cell-based or functional assay
human GLP-1 receptor [2] = molecular target: T1, human GLP-1 receptor; assay: SPA displacement of [125I]-GLP-1(7-36)NH2 from BHK membranes with human GLP-1 receptor, high HSA (2.0%)
Protocol: (§1) 50 ul (micro liter) HSA ("high albumin" experiment containing 2% HSA), or buffer ("low albumin" experiment containing 0.001% HSA) was added to Optiplate, and 25 ul of test compounds were added. 5-10 ug membrane protein/sample was added (50 ul) corresponding to 0.1-0.2 mg protein/ml (to be preferably optimised for each membrane preparation). SPA-particles (Wheatgerm agglutinin SPA beads, Perkin Elmer, #RPNQ0001) were added in an amount of 0.5 mg/well (50 ul). […] The plates were sealed with PlateSealer and incubated for 120 minutes at 30° C. while shaking. The plates were centrifuged (1500 rpm, 10 min) and counted in Topcounter.

human GLP-1 receptor [3] = molecular target: T1, human GLP-1 receptor; assay: SPA displacement of [125I]-GLP-1(7-36)NH2 from BHK membranes with human GLP-1 receptor, low HSA (0.001%)
Protocol: as §1

human GLP-1 receptor [4] = molecular target: T1, human GLP-1 receptor; assay: cell-based or functional assay; remark: listed apart in the source
[5] = molecular target: human serum albumin (HSA) (human, UniProt P02768 25-609); assay: cell-based or functional assay
human GLP-1 receptor [6] = molecular target: T1, human GLP-1 receptor; assay: cell-based or functional assay; remark: listed apart in the source
human GLP-1 receptor [7] = molecular target: T1, human GLP-1 receptor; assay: SPA displacement of [125I]-GLP-1(7-36)NH2 from BHK membranes with human GLP-1 receptor, high HSA (2.0%); remark: listed apart in the source

Chain of human serum albumin (HSA) (P02768 25-609 limits assumed): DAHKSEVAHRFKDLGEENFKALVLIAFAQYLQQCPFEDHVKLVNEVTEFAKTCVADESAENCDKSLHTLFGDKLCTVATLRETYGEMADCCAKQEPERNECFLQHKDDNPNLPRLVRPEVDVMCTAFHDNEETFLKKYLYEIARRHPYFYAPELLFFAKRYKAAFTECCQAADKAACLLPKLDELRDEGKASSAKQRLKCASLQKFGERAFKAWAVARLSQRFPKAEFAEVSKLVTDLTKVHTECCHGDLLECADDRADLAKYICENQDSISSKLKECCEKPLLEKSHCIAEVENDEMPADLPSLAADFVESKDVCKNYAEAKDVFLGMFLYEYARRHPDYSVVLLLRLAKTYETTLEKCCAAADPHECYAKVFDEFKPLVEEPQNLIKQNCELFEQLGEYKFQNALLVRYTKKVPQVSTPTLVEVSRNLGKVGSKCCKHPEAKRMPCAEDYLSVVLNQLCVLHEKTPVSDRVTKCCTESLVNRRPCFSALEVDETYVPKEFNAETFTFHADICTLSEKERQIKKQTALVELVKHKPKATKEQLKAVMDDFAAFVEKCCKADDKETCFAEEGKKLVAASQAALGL

Row | Binder | EC50/pM (0% HSA), In vitro potency (CRE luciferase) (human GLP-1 receptor [1]) | EC50/pM (1% HSA), In vitro potency (CRE luciferase) (human GLP-1 receptor [1]) | IC50 (human GLP-1 receptor [2]) | IC50 (human GLP-1 receptor [3]) | EC50/pM, In vitro potency (AlphaScreen) (human GLP-1 receptor [4]) | EC50 (ratio 1% HSA/0% HSA), CRE luciferase [5] | In vitro potency (Example 45) (0% HSA) EC50/pM (human GLP-1 receptor [6]) | In vitro potency (Example 45) (1% HSA) EC50/pM (human GLP-1 receptor [6]) | IC50 (human GLP-1 receptor [7]) | In vitro potency (Example 44) EC50/pM (human GLP-1 receptor [6])
1 | B1 | 7.9 pM |  |  |  |  |  |  |  |  | 
2 | B2 | 5.5 pM | 70 pM | 251 nM | 0.26 nM |  |  |  |  |  | 
3 | B3 | 3.6 pM | 141 pM | 484 nM |  | 369 pM |  |  |  |  | 
4 | B4 | 7.8 pM | 80 pM | 71 nM | 0.93 nM | 48 pM | 10.3 ratio |  |  |  | 
5 | B5 | 11 pM |  |  | 1.57 nM |  |  | 11 pM | 162 pM | 27 nM | 
6 | B6 | 7.2 pM |  |  |  |  |  |  |  |  | 
7 | B7 | 8.7 pM | 633 pM | 321 nM | 0.64 nM | 116 pM | 72 ratio |  |  |  | 
8 | B8 | 1.5 pM | 391 pM | 641 nM | 0.03 nM |  | 260 ratio |  |  |  | 
9 | B9 |  |  |  | 6.02 nM |  |  | 46 pM | 92 pM | 357 nM | 366 pM
10 | B10 | 9.4 pM |  |  |  |  |  |  |  |  | 
11 | B11 |  |  | 123 nM | 0.02 nM |  |  |  |  |  | 
